Like-named read-outs stand apart in the source and are kept apart here.

The results in this text go back to PMC10599462, “Molecular basis of sulfolactate synthesis by sulfolactaldehyde dehydrogenase from Rhizobium leguminosarum” (Chemical Science, 2023).

Data set [1] deals with T1, RlGabD (SLA dehydrogenase) (Rhizobium leguminosarum, UniProt A0AAJ6N661).
T1 sequence (A0AAJ6N661 1-489): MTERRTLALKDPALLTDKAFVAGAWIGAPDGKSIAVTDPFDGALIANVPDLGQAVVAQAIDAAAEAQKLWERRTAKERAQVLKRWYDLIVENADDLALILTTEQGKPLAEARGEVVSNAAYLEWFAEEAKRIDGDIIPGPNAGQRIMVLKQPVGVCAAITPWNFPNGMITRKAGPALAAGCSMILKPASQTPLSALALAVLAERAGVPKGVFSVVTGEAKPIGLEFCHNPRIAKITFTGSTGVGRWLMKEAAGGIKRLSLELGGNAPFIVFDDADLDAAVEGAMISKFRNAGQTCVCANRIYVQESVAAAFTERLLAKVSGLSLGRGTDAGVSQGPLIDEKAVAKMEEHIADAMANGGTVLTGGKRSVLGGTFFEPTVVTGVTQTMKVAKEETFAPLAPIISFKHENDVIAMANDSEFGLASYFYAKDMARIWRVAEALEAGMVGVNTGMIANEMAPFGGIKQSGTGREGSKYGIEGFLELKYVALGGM
The data set can be described thus: biochemical. Also on record: gene EV132_10158; recombinant RlGabD; nanoDSF thermal shift (F350/F330 intrinsic fluorescence) of recombinant RlGabD with ligand. To be noted: nanoDSF, average of 2 replicates; read-out: ∆Tm (Avg). Background: In DSF a fluorescence change marks the thermal transition of the protein.

The target of data set [2] is T1, RlGabD (SLA dehydrogenase). The data set can be described thus: cryo-EM structure of binary complex at […] Å. Also on record: gene EV132_10158; recombinant RlGabD tetramer. The format is binding.
Data set [3] addresses T1, RlGabD (SLA dehydrogenase). The data set can be described thus: enzyme inhibition assay with constant SLA and NAD+. The format is biochemical. Also on record: gene EV132_10158; recombinant RlGabD.
In data set [4] the target is SLA dehydrogenase RlGabD from Rhizobium leguminosarum SRDI565 (Rhizobium leguminosarum bv. trifolii SRDI565). The data set can be described thus: SEC-MALS; SEC-MALLS of RlGabD in solution; homotetramer. Background: In gel filtration, larger molecules generally elute earlier.
Data set [5] has as its target T1, RlGabD (SLA dehydrogenase). The data set can be described thus: biochemical. To be noted: nanoDSF, average of 2 replicates; read-out: ∆Tm (Avg). Also on record: gene EV132_10158; recombinant RlGabD; nanoDSF thermal shift (F350/F330 intrinsic fluorescence) of recombinant RlGabD with ligand. This is another data set of the same source.
Substrate in data set [6]: O=CC(O)COP(=O)(O)O
Nature of the data set: purified protein. To be noted: NADP+.

Substrate in data set [7]: NC(=O)c1ccc[n+]([C@@H]2O[C@H](COP(=O)([O-])OP(=O)(O)OC[C@H]3O[C@@H](n4cnc5c(N)ncnc54)[C@H](OP(=O)(O)O)[C@@H]3O)[C@@H](O)[C@H]2O)c1
Nature of the data set: purified protein. To be noted: […]′-phosphate binding residues Ser179 and Lys182 (E. coli SSADH numbering) conserved; varied: cofactor.

Substrate in data set [8]: NC(=O)c1ccc[n+]([C@@H]2O[C@H](COP(=O)([O-])OP(=O)(O)OC[C@H]3O[C@@H](n4cnc5c(N)ncnc54)[C@H](O)[C@@H]3O)[C@@H](O)[C@H]2O)c1
The data set can be described thus: purified protein. It counts as biochemical, Rhizobium leguminosarum. To be noted: binds first to enzyme (rapid equilibrium ordered mechanism); varied: cofactor.

Substrate in data set [9]: O=CC(O)CS(=O)(=O)O
Nature of the data set: purified protein. It counts as biochemical, Rhizobium leguminosarum. To be noted: NAD+ proposed: Cys295 nucleophile, Glu261 general base, Asn163 oxyanion hole, Arg171/Arg289 sulfonate binding.

Consider `NC(=O)c1ccc[n+]([C@@H]2O[C@H](COP(=O)([O-])OP(=O)(O)OC[C@H]3O[C@@H](n4cnc5c(N)ncnc54)[C@H](O)[C@@H]3O)[C@@H](O)[C@H]2O)c1` [NAD^+], for which the ΔTm at 10000 µM in data set [1] was found to be 4.3 °C.
Regarding `NC(=O)C1=CN([C@@H]2O[C@H](COP(=O)(O)OP(=O)(O)OC[C@H]3O[C@@H](n4cnc5c(N)ncnc54)[C@H](O)[C@@H]3O)[C@@H](O)[C@H]2O)C=CC1` [NADH], the ΔTm at 10000 µM in [1] is 1.5 °C. Further, the “cryo-EM structure of binary complex at 2.52 Å” value in [2] is “The RlGabD·NADH complex shows the binding mode and positioning of the cofactor”.
Take `NC(=O)c1ccc[n+]([C@@H]2O[C@H](COP(=O)([O-])OP(=O)(O)OC[C@H]3O[C@@H](n4cnc5c(N)ncnc54)[C@H](OP(=O)(O)O)[C@@H]3O)[C@@H](O)[C@H]2O)c1` [NADP^+]: the ΔTm at 10000 µM in data set [1] was 3.5 °C.
With `NC(=O)C1=CN([C@@H]2O[C@H](COP(=O)(O)OP(=O)(O)OC[C@H]3O[C@@H](n4cnc5c(N)ncnc54)[C@H](O)[C@@H]3O)[C@@H](O)[C@H]2O)CCC1` [tetrahydro-NADH], the IC50 in data set [3] turned out to be 28 µM.
In data set [4], “SLA dehydrogenase RlGabD from Rhizobium leguminosarum SRDI565 (enzyme)” yielded a stoichiometry N of 4.
On to `NC(=O)C1=CN([C@@H]2O[C@H](COP(=O)(O)OP(=O)(O)OC[C@H]3O[C@@H](n4cnc5c(N)ncnc54)[C@H](OP(=O)(O)O)[C@@H]3O)[C@@H](O)[C@H]2O)C=CC1` [NADPH], for which, in data set [5], the ΔTm at 10000 µM was determined as 2.5 °C.

B1: RlGabD (SLA dehydrogenase) (Rhizobium leguminosarum bv. trifolii SRDI565) (protein)
chain: MTERRTLALKDPALLTDKAFVAGAWIGAPDGKSIAVTDPFDGALIANVPDLGQAVVAQAIDAAAEAQKLWERRTAKERAQVLKRWYDLIVENADDLALILTTEQGKPLAEARGEVVSNAAYLEWFAEEAKRIDGDIIPGPNAGQRIMVLKQPVGVCAAITPWNFPNGMITRKAGPALAAGCSMILKPASQTPLSALALAVLAERAGVPKGVFSVVTGEAKPIGLEFCHNPRIAKITFTGSTGVGRWLMKEAAGGIKRLSLELGGNAPFIVFDDADLDAAVEGAMISKFRNAGQTCVCANRIYVQESVAAAFTERLLAKVSGLSLGRGTDAGVSQGPLIDEKAVAKMEEHIADAMANGGTVLTGGKRSVLGGTFFEPTVVTGVTQTMKVAKEETFAPLAPIISFKHENDVIAMANDSEFGLASYFYAKDMARIWRVAEALEAGMVGVNTGMIANEMAPFGGIKQSGTGREGSKYGIEGFLELKYVALGGM
notes: recombinant RlGabD
For B1, the Km in data set [6] was found to be 170 ± 28 µM; in [7], 17 ± 4.1 µM; in data set [8], 81 ± 19 µM; in data set [9], 130 ± 40 µM. In addition, the kcat in [6] was 3 s⁻¹; in [7] it was 4.1 s⁻¹; in data set [8], 17.7 ± 3.2 s⁻¹; in [9] it was 17.8 ± 7 s⁻¹. For the same molecule, the kcat/Km turned out to be 10500 M⁻¹ s⁻¹ in [6], 240000 M⁻¹ s⁻¹ in data set [7], 210000 ± 63000 M⁻¹ s⁻¹ in data set [8] and 137000 ± 72000 M⁻¹ s⁻¹ in data set [9].

What is called IC50 is the point on the concentration scale where inhibition reaches its midpoint. By stoichiometry N is commonly meant a count of units in the complex or per binding partner. By Km is commonly meant the concentration of substrate that gives half-maximal velocity. The term kcat denotes the number of substrate molecules converted per active site and unit of time at saturation. Broadly, the kcat/Km is the second-order rate constant that governs catalysis at low substrate concentration.
